Measurements reported in the RNAGym collection of RNA variant scans (doi:10.1073/pnas.2313332121).

B1: TPR t1 (parent)
chain: GACCAAUCUGCCCUCAGAGCUCGAGAACAUCUUCGGAUGCAGAGGAGGCAGGCUUCGGUGGCGCGAUAGCGCCAACGUCCUCAACCUCCAAUGCAUCCCACCACAUGAUGAUGCCUGAAGAGCCUUGGUUUUUUG

Variants of: B1
Assay: polymerase ribozyme fitness, log enrichment relative to wild type (log ratio); higher = more active; in vitro selection for triplet polymerase activity
How it was run: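 A single round of triplicate in vitro selection, including frozen incubation at −7 °C, was applied to PCR-built, transcribed mutant libraries of each subunit of a heterodimeric triplet polymerase ribozyme. Illumina sequencing of input and output libraries retained genotypes with ≥10 input reads and ≥1 read per output. Fitness is the base-2 logarithm of genotype enrichment divided by wild-type enrichment, from inverse-variance-weighted replicate averages.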

Variant	polymerase ribozyme fitness (log ratio)
G48U U55G G61U	-0.0419
C20U G63C C94A G120C	-2.23
A66U C70U C88G	-2.66
A6C G10A A37G G77A C79U C124A	-0.0414
C56G G110A U116G	-3.62
C8U G44U C99U	-2.6
C13G A26C C40U C79U C85U G120C	-6.15
G60C G117C A121C	-4.85
U87A C89U	0.835
G44A C49U U106G	-5.12
C62A U78G	-2.46
C8U C49U G71C G117U G120A C124A	-1.83
G71U A74G	-5.51
A26G C34U C85U C124G	-2.34
C8G G44C C70A A84C C115U	-5.29
G42A A50U	-4.57
C15U G57A G117U	-3.3
U78G G113A	-1.05
C12U A16U G63C A105C C124G	-2.25
C85A G110A G127A	-3.71
C11G C12U A50G G71A U133G	-4.01

Variant	polymerase ribozyme fitness (log ratio)
C40U C123A	0.43
U33G G63C C124A	-4.77
G47U C72U U78C G113C	-3.65
G39C C86U	-2.09
C13A C28G C49A A75U A103G G107U U112C	-6.59
G63A C82A	-2.53
C53G G63C A91C A118C	-4.54
C15G C94A	-3.63
G36A G61A A103C A118U	-5.74
C114G U133A	-2.37
A5G C15U C49U C62A C123A	-2.06
A6C G52C	-0.394
A37U U131C	-0.648
C49A C72U U109C U112A A121C	-6.03
A46C G48U G113A	-3
U9A G71A C85A G93A C102A	-3.84
C13U C15U A37U A41U U59G	-1.74
C8A A46U A74U A100U C102U C115A	-2.37
A6C A27G C49U C79A U81A	-6.28
C8U C85U C124G	2.05
C11G G44C C72G C88U C101U	-0.537

Variant	polymerase ribozyme fitness (log ratio)
C114A A121U	-1.18
A24U U112A	-4.52
G10A G47C G51C U59G U81C C115A	-5.77
U7C C73A	-0.286
C15A C20A G71U A118U	-4.11
A5C C8G U33G C97U	-5.64
C12A A41U G77C A83G C85A U125A	-4.14
G44A A46U G47C A74G	-1.99
C12U G71A C94U	-1.26
G39U C56G C102U	-2.53
G57U G69U	-0.378
C56G C114G	-3.74
C4G U7G C8G G71A C98G A103C C114A G122U	-5.04
C22G G110C C123G	-5.98
G42U C53A A84C C86U A90U U131G U132C	-1.34
C28A A46U G77C A121C	-4.52
G25U C64G C88A G110A G120C C123U	-6.08
C20U C28U G45C	-4.64
A46U A121U	0.389
G39C C56G A111C G128A	-3.6
A37C C72U G120U A121C	0.205

Variant	polymerase ribozyme fitness (log ratio)
C8G C98A C102A C115A	-3.34
C28U A100C C102U U112C	-4.83
G44C C76U U78A	-1.08
C70A C86G C102A	-4.88
U32C C104U U112G	0.174
A26G A37U C53G	-3.12
G10A A43U G57U U130C	-1.83
G10A	0.148
A43U C56A C85G U133A	-4.39
C28G U32C	-2.94
A29G G61A C89A	-2.41
A5U G48U	-1.69
C8A A37G C62G C72G U112G G127A	-5.98
A5U G52U U112G	-0.382
C72A C73A	-0.947
G45A U59G G60A A100U	-2.28
C8A A66U C124G	0.659
A26G G71A A84C C89U G93C C114U	-6.05
G19A C102A	-5.35
U54A G61U C62U U96G	-6.42
